Assay results reported in patent US20100158926A1.
Values joined by “and” are separate entries in the source; they are usually repeats but may differ in a detail not shown here. Equal values may be shown once.

Legend:
[1] = target: human ErbB2, full length, on cells (B300.19/hErbB2 clone #44; MCF7; BT474; SKBR3) (human)
[2] = target: human ErbB2, full length, on cells (B300.19/hErbB2 clone #44; MCF7; BT474; SKBR3) (human); remark: listed apart in the source
[3] = target: human ErbB2, full length, on cells (B300.19/hErbB2 clone #44; MCF7; BT474; SKBR3) (human); remark: listed apart in the source
[4] = target: human ErbB2, full length, on cells (B300.19/hErbB2 clone #44; MCF7; BT474; SKBR3) (human); remark: listed apart in the source
[5] = target: human ErbB2, full length, on cells (B300.19/hErbB2 clone #44; MCF7; BT474; SKBR3) (human); remark: listed apart in the source
[6] = target: human ErbB2 ECD-myc/His fusion protein (human); assay: SPR, high resolution Biacore T100; mAb captured on goat anti-human IgG, hHer-2(ECD)cMyc injected; 1:1 fit
[7] = target: human ErbB2 ECD-myc/His fusion protein (human); assay: SPR, medium resolution Biacore 2000; mAb captured on goat anti-human IgG, ErbB2(ECD)-cMyc/His injected; 1:1 fit
[8] = target: human ErbB2 ECD-myc/His fusion protein (human); assay: limited antigen ELISA, 31 ng/ml antigen coated, supernatant 1:25, OD 450 nm
[9] = target: human ErbB2, full length, on cells (B300.19/hErbB2 clone #44; MCF7; BT474; SKBR3) (human); remark: listed apart in the source

Row | Molecule | N1 % Inhibition @40 µg/ml, BT474 cell proliferation [1] [%] | N1 EC50 (ng/ml), inhibition of BT474 cell proliferation [1] [ng/mL] | N2 EC50 (ng/ml), inhibition of BT474 cell proliferation [1] [ng/mL] | % inhibition @36 µg/ml, SKBR3 cell proliferation [2] [%] | EC50 (ng/ml), inhibition of SKBR3 cell proliferation [2] [ng/mL] | EC50 (ng/ml) n1, inhibition of Heregulin-induced ErbB2 phosphorylation in MCF7 cells [3] [ng/mL] | EC50 (ng/ml) n2, inhibition of Heregulin-induced ErbB2 phosphorylation in MCF7 cells [3] [ng/mL] | EC50 (ng/ml), inhibition of Heregulin-induced MCF7 cell proliferation [4] [ng/mL] | % Inhibition @10 µg/ml (n1), ErbB2 phosphorylation in BT474 cells at 48 hours [5] [%] | % Inhibition @10 µg/ml, Heregulin-induced MCF7 cell proliferation [4] [%] | Kd [6] [nM] | Kd [7] [nM] | koff [7] [s⁻¹] | kon [7] [M⁻¹ s⁻¹] | LA at 31 ng/ml [8] | other results
1 | chimeric anti-hErbB2 antibody 2C4 | -9 | > 40000 | 4750 |  | > 36000 | 43.6 | 14.6 | 404 | 10 | 90 | 3.2 |  |  |  |  | 
2 | monoclonal antibody 1.20 (antibody, V domains shown) VH: QLQLQESGPGLVKPSETLSLTCTVSGGSISSSNYYWGWIRQPPGKGLEWIGTIYYTGSTYYNPSLKSRVTISVDTSKNQFSLKLSSVTAADTAVYYCARHHWVFDYWGQGTLVTVSS VL: DIQMTQSPSSVSASVGDRVTITCRASQGISSWLAWYQQKPGKAPKLLIYAASSLQSGVPSRFSGSGSGTDFTLTISSLQPEDFATYYCQRTNSFPRTFGQGTKVEIK | 40 | 85.3 | 12.8 | 49 | 25.2 | 15.5 | 17.4 | 770 | 21 | 100 |  | 3.6 | 0.000344 | 95000 | 2.84 OD and 1.77 OD | 24 hr pTyr inhibition % (line 1*19) [9]: 97%; 24 hr pTyr inhibition % (line 1*20) [9]: 96%
3 | monoclonal antibody 1.39 (antibody, V domains shown) VH: QLQLQESGPGLVKPSETLSLTCTVSGGSISSSTYYWGWIRQPPGKGLEWIGTIYYSGSTYYNPSLKSRVTISVDTSKNQFSLKLNSVTAADTAVYYCARHHWVFDYWGQGTLVTVSS VL: EIVLTQSPDFLSVTPKEKVTITCRASQIIGSSLHWYQQKPDQSPKLLIKYASQSFSGVPSRFSGSGSGTDFTLTLNSLEAEDAATYYCHQSTILPWTFGQGTKVEIK | 29 | 156 | 42.3 | 41 | 68.9 | 46.9 | 26.3 | 479 | 37 | 89 | 13.4 | 2 | 0.000236 | 115000 | 2.57 OD | 24 hr pTyr inhibition % (line 1*39) [9]: 99%; koff [6]: 0.000214 s⁻¹; kon [6]: 16000 M⁻¹ s⁻¹
4 | monoclonal antibody 1.100.1 (antibody, V domains shown) VH: QLQLQESGPGLVKPSETLSLTCTVSGGFISSSSYYWGWIRQPPGKGLEWIGTIYYSGTTYYNSSLKSRVTISVDTSQNQFSLKLSSVTAADTAVYYCARHHWVFDYWGQGTLVTVSS VL: EVVLTQSPDFQSVTPKEKITITCRASQIIGTSLHWYQKKPDQSPKLLIKYASQSFSGVPSRFSGSGSGTEFTLTINSLEAEDTATYYCHQSTNLPWTFGQGTKVEIK | 35 | 169 | 91.1 | 54 | 61.3 | 39.9 | 33.7 | 2040 | 37 | 95 |  | 2.9 | 0.000301 | 104000 | 3.54 OD | 24 hr pTyr inhibition % (line 1*100) [9]: 95%
5 | monoclonal antibody 1.96 (antibody, V domains shown) VH: EVQLVESGGGLVQPGGSLRLSCAASGFTFSSYWMSWVRQAPGKGLEWVANIKQDGSEKYYVDSVKGRFTISRDNAKNSLYLQMNSLRAEDTAVYYCARWGVFGSGSYYIPFDYWGQGTLVTVSS VL: DIQMTQSPSSLSASVGDRVTITCRASHSITRYINWYQQKPGKAPNLLIYAASSLQSGVPSRFSGSGSGTDFTLTISSPQPEDFATYYCQQSYSSPPITFGQGTRLEIK | 35 | 131 | 66.3 | 43 | 41.7 | 28.8 | 34 | 2830 | 37 | 98 | 11.6 | 2.6 | 0.000273 | 103000 |  | 24 hr pTyr inhibition % (line 1*96) [9]: 99%; 24 hr pTyr inhibition % (line 1*99) [9]: 99%; 24 hr pTyr inhibition % (line 1*104) [9]: 73%; 24 hr pTyr inhibition % (line 1*107) [9]: 82%; 24 hr pTyr inhibition % (line 1*128) [9]: 98%; koff [6]: 0.000194 s⁻¹; kon [6]: 16800 M⁻¹ s⁻¹
6 | monoclonal antibody 1.18.1 (antibody, V domains shown) VH: QVQLVESGGGVVQPGRSLRLSCAASGFTFSSYGMHWVRQAPGKGLEWVAVIWYDRSNKYYADSVKGRFTISRDNSKNTLYLQMDSLRAEDTAVYYCAGGRSRGAFDYWGQGTLVTVSS VL: DIQMTQSPSSLSASVGDRVTITCRASQGIRNYLAWFQQKPGKAPKSLIYAASSLQSGVPSTFSGSGSGTHFTLTISSLQPEDFASYFCQQYEIYPLTFGGGTKVEIK | 34 | 38.1 | 28.2 | 46 | 26.3 | 4.2 | 10.8 | 415 | 24 | 94 |  | 3 | 0.000302 | 100000 | 3.03 OD | 24 hr pTyr inhibition % (line 1*18) [9]: 96%
7 | monoclonal antibody 1.43 (antibody, V domains shown) VH: QVQLVESGGGLVKPGGSLRLSCAASGFTFSDYYMNWIRQAPGKGLEWVSYISSSGSIIYYADSVKGRFTISRDNAKNSLYLQMNSLRAEDTAVYYCAREGRIAARGMDVWGQGTTVTVSS VL: DIQMTQSPSSLSASVGDRVSITCRPSQSFSRYINWYQQKPGKAPKLLIHAASSLVGGVPSRFSGSGSGTDFTLTISSLQPEDFATYYCQQTYSNPPITFGQGTRLEMK |  |  |  |  |  | > 10000 | > 10000 | 10000 |  | 53 |  |  |  |  | 3.2 OD and 3.57 OD | 24 hr pTyr inhibition % (line 1*41) [9]: 86%; 24 hr pTyr inhibition % (line 1*43) [9]: 82%

More lines, main results first:

Row | N1 % Inhibition @40 µg/ml, BT474 cell proliferation [1] [%] | N1 EC50 (ng/ml), inhibition of BT474 cell proliferation [1] [ng/mL] | N2 EC50 (ng/ml), inhibition of BT474 cell proliferation [1] [ng/mL] | % inhibition @36 µg/ml, SKBR3 cell proliferation [2] [%] | EC50 (ng/ml), inhibition of SKBR3 cell proliferation [2] [ng/mL] | EC50 (ng/ml) n1, inhibition of Heregulin-induced ErbB2 phosphorylation in MCF7 cells [3] [ng/mL] | EC50 (ng/ml) n2, inhibition of Heregulin-induced ErbB2 phosphorylation in MCF7 cells [3] [ng/mL] | EC50 (ng/ml), inhibition of Heregulin-induced MCF7 cell proliferation [4] [ng/mL] | % Inhibition @10 µg/ml (n1), ErbB2 phosphorylation in BT474 cells at 48 hours [5] [%] | % Inhibition @10 µg/ml, Heregulin-induced MCF7 cell proliferation [4] [%] | Kd [6] [nM] | Kd [7] [nM] | koff [7] [s⁻¹] | kon [7] [M⁻¹ s⁻¹] | LA at 31 ng/ml [8] | Molecule | other results
8 | -2 | > 40000 | > 40000 | 2 | > 36000 |  |  |  |  |  |  |  |  |  |  | hIgG1 control antibody | 
9 |  |  |  |  |  | > 10000 | > 10000 | > 10000 | 5 |  |  |  |  |  |  | Herceptin® (antibody) | 
10 | 38 | 136 | 63 | 52 | 35.7 | 33.7 | 22.9 | 640 | 37 | 96 |  | 2.5 | 0.000256 | 102000 | 3.99 OD | monoclonal antibody 1.14.1 (antibody, V domains shown) VH: QLQLQESGPGLVKPSETLSLTCTVSGDSISSFIYYWGWIRQPPGKGLEWIGTIYYSGSTYYNPSLKSRVTISVDTSKNQFSLKLRSVTAADTAVYYCARHHWVFDYWGQGTQVTVSS VL: DIVLTQFPDFQSVTPKEKVTITCRASQVIGSSLHWYQQKPDQSPKLLIKYASQSFSGVPSRFSGSGSGTDFTLTINSLEVEDAATYYCHQSTILPWTFGQGTKVEVK | 24 hr pTyr inhibition % (line 1*14) [9]: 100%
